From patent publication US20220008520A1, “METHODS AND MATERIALS FOR REDUCING AGE-RELATED STRIATED MUSCLE AND COGNITIVE DECLINE” (University of Pittsburgh - Of the Commonwealth System of …, priority 2018, published 2022)

Tests used:
aged mice = test: Cardiotoxin TA muscle injury in aged mice, α-Klotho supplementation in vivo; settings: for functional recovery (wire hang test, in situ contractile testing) / myofiber area / number of regenerating fibers: daily i.p. 10 μg/kg
Method: Wild-type male C57BL/6 young, Kl+/− mice, or old mice received injuries to bilateral Tibialis Anterior (TA) muscles via an intramuscular injection of cardiotoxin (10 μL of 1 mg/mL). Fourteen days following the injury, TAs were harvested for histological analysis of α-Klotho, fibrosis (picrosirius red), degenerating myofibers (IgG) and myofiber regeneration (laminin). Second Harmonic Generation (SHG) imaging was performed on isolated TA muscles treated with a non-targeting control or lentiviral knockdown of α-Klotho, as well as pump-administered animals in order to visualize collagen and myofibers within the muscle 14 days post injury, as described elsewhere (see, e.g., Zhang et al., 2016 Stem Cells 34:732-742).
Strength endurance was tested using the hang-wire test as described elsewhere (see, e.g., Aartsma-Rus et al., J. Vis. Exp 85:51303 (2014)). The Hang Impulse (HI) score was calculated as bodyweight (grams)×time hung (seconds). Male mice were used for all testing using C57B1/6 mice. Wild type and Kl+/− were females for testing.
Mini osmotic pumps containing either saline or α-Klotho (324 pg/ml in saline vehicle) were inserted subcutaneously into aged mice. After 2 days, bilateral TA muscles were injured by intramuscular CTX injection (as above). Osmotic pumps remained implanted until euthanasia 14 days post injury. Isotonic saline or α-Klotho (10 μg/kg body weight) was administered to aged animals via daily intraperitoneal injections over days 1-3 post-injury or 3-5 days post-injury. The TAs were then harvested 14 days post injury and preserved for histology or SHG analysis. Blood serum was also collected to evaluate circulating α-Klotho levels via ELISA. The activity of α-Klotho was confirmed as described elsewhere (see, e.g., Shalhoub et al., 2011 Calcif Tissue Int, 89:140-50).

MPCs [1] = test: qPCR-based analysis of mtDNA damage and mtDNA copy number in MPCs; type: cell-based, mice; settings: aged MPCs, recombinant α-Klotho in culture for 48 hours, 0.05μg/mL
Method: mtDNA integrity was next examined in MPCs isolated from young or aged mice, using a qPCR-based assay. The method used is based on the principle that a wide variety of types of DNA damage have the propensity to block DNA polymerase progression (see, e.g., Furda et al., 2012 DNA Repair (Amst), 11:684-92). Therefore, this assay detects numerous kinds of base DNA damage or DNA repair intermediates such as abasic sites, as well as single and double DNA strand breaks.
MPCs were treated with 25 nmol of silencing RNA (siRNA) to α-Klotho (GE Dharmacon, Product no.SO2462181G) for 48 hours. As a control, young MPCs were treated with a non-targeting (scramble) siRNA. […]
(§1) Oxygen consumption rate (OCR) and extracellular acidification rate (ECAR) were measured in real time using a Seahorse XFe96 Extracellular Flux Analyzer (Billerica, Mass.) as described elsewhere (see, e.g., de Moura and Van Houten, 2014 Methods Mol Biol, 1105:589-602). The basal OCR was measured by averaging the OCR values before treating the cells with oligomycin. Total reserve capacity was calculated by the differences of OCR between treatment with FCCP and 2DG and basal values. Mitochondrial DNA damage was quantified as described elsewhere (see, e.g., Sanders et al., 2014 Toxicol Sci, 142:395-402; and Sanders et al., 2014 Neurobiol Dis, 62:381-6). […]

OGG1 and APE1 = test: LXRepair multiplex DNA base excision repair enzyme activities in MPCs; type: cell-based, mice; settings: siRNA-treated MPCs from young animals, 48 hours of α-Klotho supplementation
Method: LXRepair multiplex technology (see, e.g., Garreau-Balandier et al., 2014 FEBS Lett, 588:1673-9; and Sauvaigo et al., 2004 Anal Biochem, 333:182-92) was used to evaluate the DNA base excision repair (BER) enzyme activities of OGG1 and APE1, which work on two common oxidative DNA lesions, 8-oxodG and abasic sites, respectively.
MPCs were treated with 25 nmol of silencing RNA (siRNA) to α-Klotho (GE Dharmacon, Product no.SO2462181G) for 48 hours. As a control, young MPCs were treated with a non-targeting (scramble) siRNA. Aged MPCs were treated with 0.05μg/mL exogenous α-Klotho (R & D systems, Product no. aa 34-981), added to the culture media for 48 hours.

MPCs [2] = test: Seahorse XFe96 analysis of MPC bioenergetics (basal OCR, reserve capacity); type: cell-based, mice; settings: aged MPCs, recombinant α-Klotho in culture for 48 hours, 0.05μg/mL
Method: In light of the loss of mitochondrial ultrastructural resulting from decreased α-Klotho expression, we next evaluated whether loss of α-Klotho drives MPC mitochondrial dysfunction. The bioenergetic profiles of young and aged MPCs were studied using a Seahorse XFe96 Flux analyzer, which measures oxygen consumption rate (OCR), a measure of oxidative phosphorylation. OCR was measured again after injection of oligomycin, FCCP, 2-deoxyglucose (2-DG), and rotenone. […] When young MPCs were treated with siRNA to α-Klotho, basal OCR was reduced to ˜25% values of scramble-treated counterparts (FIG. 4C, FIG. 14). MPCs isolated from uninjured Kl+/− mice display a similarly blunted bioenergetic profile (FIG. 4D). […] Reserve capacity represents the spare bioenergetic capacity, is calculated as the difference between the basal and maximal OCR, and indicates the ability of a cell to respond to stress. […]
as §1, with “values.” for “values. Mitochondrial DNA damage was quantified as described elsewhere (see, e.g., Sanders et al., 2014 Toxicol Sci, 142:395-402; and Sanders et al., 2014 Neurobiol Dis, 62:381-6).”

B1: α-Klotho: recombinant/exogenous α-Klotho protein (R & D systems, Product no. aa 34-981) (protein)
chain: AEPGQGAQTWARFARAPAPEAAGLLHDTFPDGFLWAVGSAAYQTEGGWRQHGKGASIWDTFTHHSGAAPSDSPIVVAPSGAPSPPLSSTGDVASDSYNNVYRDTEGLRELGVTHYRFSISWARVLPNGTAGTPNREGLRYYRRLLERLRELGVQPVVTLYHWDLPQRLQDTYGGWANRALADHFRDYAELCFRHFGGQVKYWITIDNPYVVAWHGYATGRLAPGVRGSSRLGYLVAHNLLLAHAKVWHLYNTSFRPTQGGRVSIALSSHWINPRRMTDYNIRECQKSLDFVLGWFAKPIFIDGDYPESMKNNLSSLLPDFTESEKRLIRGTADFFALSFGPTLSFQLLDPNMKFRQLESPNLRQLLSWIDLEYNHPPIFIVENGWFVSGTTKRDDAKYMYYLKKFIMETLKAIRLDGVDVIGYTAWSLMDGFEWHRGYSIRRGLFYVDFLSQDKELLPKSSALFYQKLIEDNGFPPLPENQPLEGTFPCDFAWGVVDNYVQVDTTLSQFTDPNVYLWDVHHSKRLIKVDGVVAKKRKPYCVDFSAIRPQITLLREMRVTHFRFSLDWALILPLGNQTQVNHTVLHFYRCMISELVHANITPVVALWQPAAPHQGLPHALAKHGAWENPHTALAFADYANLCFKELGHWVNLWITMNEPNTRNMTYRAGHHLLRAHALAWHLYDDKFRAAQKGKISIALQADWIEPACPFSQNDKEVAERVLEFDIGWLAEPIFGSGDYPRVMRDWLNQKNNFLLPYFTEDEKKLVRGSFDFLAVSHYTTILVDWEKEDPMKYNDYLEVQEMTDITWLNSPSQVAVVPWGLRKVLNWLRFKYGDLPMYVTANGIDDDPHAEQDSLRIYYIKNYVNEALKAYVLDDINLCGYFAYSLSDRSAPKSGFYRYAANQFEPKPSMKHYRKIIDSNGFLGSGTLGRFCPEEYTVCTECGFFQTRKSLLVFISFLVFTFIISLALIFHYSKKGQRSYK
- functional recovery (wire hang test, in situ contractile testing) (aged mice; 1-3 dpi): only animals receiving α-Klotho over 3-5 dpi displayed an improved functional recovery
- myofiber area (aged mice; 1-3 dpi): significant increase in myofiber area
- number of regenerating fibers (aged mice; 1-3 dpi): significant increase in the number of regenerating fibers
- functional recovery (wire hang test, in situ contractile testing) (aged mice; 3-5 dpi): improved functional recovery
- myofiber area (aged mice; 3-5 dpi): significant increase in myofiber area
- number of regenerating fibers (aged mice; 3-5 dpi): significant increase in the number of regenerating fibers
- local α-Klotho within the injured muscle areas (aged mice; osmotic pump, 324 pg/ml, 14 dpi): significant increase in local α-Klotho
- increase in the number of MyoD+ cells at the site of injury (aged mice; osmotic pump, 14 dpi): approximately 3.5 fold
- number of regenerating fibers after injury (histology and SHG) (aged mice; osmotic pump, 14 dpi): increased number of regenerating fibers
- myofiber cross sectional area (aged mice; osmotic pump, vs saline): no significant increase
- total muscle area (aged mice; osmotic pump, vs saline): no significant increase
- mtDNA damage (MPCs [1]): decreased mtDNA damage
- activity of BER enzymes (OGG1, APE1; 8-oxodG and abasic sites) (OGG1 and APE1): dramatically stimulated the activity of these BER enzymes
- activity of BER enzymes (OGG1, APE1; 8-oxodG and abasic sites) (OGG1 and APE1; listed as Klotho): stimulated repair
- OCR (MPCs [2]): increased OCR
- reserve capacity (MPCs [2]): increased reserve capacity
